Measured values as given in patent publication US20260139030A1.

Target: TNFα (Examples 10 and 11)
Experiment: cell-based or functional assay

Row | SEAP activity (NFκB/AP-1 reporter) in HEK-Blue Dectin2 cells, reduction against TNFα plus irrelevant protein | Substance
1 | 4 fold | TNFR2-Fc-Clec7a chimeric protein (Examples 10 and 11) (Fc fusion; the values are: fold reduction in SEAP activity)
2 | > 20 fold | TNFR2-Fc-Dectin2 chimeric protein (Examples 10 and 11) (Fc fusion; the values are: fold reduction in SEAP activity)
